B1: HDV Ribozyme (parent)
chain: GGCCGGCAUGGUCCCAGCCUCCUCGCUGGCGCCGGCUGGGCAACAUUCCGAGGGGACCGUCCCCUCGGUAAUGGCGAAUGGGACCCA

Variants of: B1
Assay: self-cleavage, relative activity (ratio to wild type); higher = more cleavage; co-transcriptional

Variant	self-cleavage
C18G C49U	0.138
C18G G39U	0.0554
G17U G31A	0.107
C18G A87C	0.104
G17U C24A	0.116
G17U C24U	0.146
G17U C24G	0.128
C18A C22G	0.0811
C18A C22U	0.0378
C18G G81C	0
C18G G81A	0.277
C18G C33U	0.128
G17U U47G	0.35
G17U G76U	0.749
C18G A78U	0.0723
G17C U20A	0.0573
C18G G28A	0.0346
C18G G28C	0.0573
G17U U37G	0.0831
G17U U37A	0.185
G17U U65C	0.332
G17U U65G	0.541
G17U U65A	0.415
C18A G28U	0

Variant	self-cleavage
C18A G28A	0.128
C18A C30U	0
G17U A87C	0.389
C18A A70C	0.128
C18A A70G	0
C18G G29U	0.601
C18G G29A	0.217
G17U U46G	0.0554
G17U U46A	0.111
G17U G55A	0.554
C18G G31C	0.0449
C18A U65G	0.19
G17U U60A	0.494
G17U U60G	0.522
C18A G55A	0.0314
C18G U23C	0.227
C18G U23A	0
C18G G68A	0.0504
C18G G68C	0.119
C18G G68U	0.0978
G17U G73U	0.222
G17U G73A	0.233
G17U G73C	0.145
G17U C75U	0.181

Variant	self-cleavage
G17U C75G	0.0594
C18A C24G	0.107
C18A U69G	0.232
G17U C64A	0.601
G17U G54A	0.326
C18A G80A	0.0963
C18A G80U	0.051
C18A G80C	0
C18A C21G	0.131
C18A G76C	0.14
C18A G76U	0.228
C18G C48A	0.123
C18G C48G	0.175
C18A U47C	0.0536
G17C U37G	0
G17C U37A	0
G17C U37C	0.344
G17U G34C	0.0692
G17U G34U	0.0554
C18A C66A	0.208
C18A C66U	0.0779
C18G G82A	0.0462
C18A C36U	0.0386
G17U C36A	0.0665

Variant	self-cleavage
G17U C36G	0
C18G C24A	0.0755
C18G C24G	0.0504
C18G C24U	0.107
G17U U69G	0.534
G17U U69A	0.306
G17U C33U	0.326
G17U C19U	0.199
G17U C19A	0.166
G17U C19G	0
C18A G31U	0.141
C18A G31A	0.0898
C18G	0.131
C18A	0.145
C18U	0.732
G17U C61A	0.456
G17U C61G	0.424
C18A A87G	0.0811
C18A A87C	0.134
C18G A56U	0.138
C18G A56G	0
C18A C58G	0
C18A C58U	0.196
G17U G25U	0.185

Variant	self-cleavage
G17U A51U	0.491
G17U G82A	0.543
G17U A56C	0.415
C18A A56U	0.222
C18A A56C	0.0573
G17U C86A	0.369
C18A C62G	0.135
G17U G74U	0.217
G17U G74C	0.0415
C18G C36A	0.095
C18G C36G	0
C18G C36U	0.0852
G17U C18U	0.189
G17U C18A	0.0978
C18G U27G	0.128
C18G G53U	0.332
C18A G40U	0.0631
G17U U23A	0.397
G17U U23C	0.219
G17U A77C	0.166
G17C U23G	0.123
C18G G76U	0.227
C18G G76A	0.111
C18A G29A	0.0604

Variant	self-cleavage
G17U G68U	0.611
G17U C48U	0.458
C18G U20G	0.185
C18G U20C	0
C18G G73A	0
C18G G40U	0.0489
C18G G40A	0.175
C18G G40C	0.0852
G17C G68C	0.227
G17C G68U	0.425
G17U G38A	0.0755
G17U C49U	0.356
G17U C49G	0.356
C18G G38A	0.0978
G17U A83U	0.34
G17C U60A	0.575
C18G C63U	0.0386
C18G U47G	0.256
G17U C21U	0.13
C18A G50C	0.219
C18A G50A	0.23
C18A G50U	0.197
C18G A83C	0.192
C18G A83G	0.0707

Variant	self-cleavage
G17U A45U	0.244
G17U A45C	0.161
G17U A45G	0.525
C18A G39U	0.0369
C18A G39C	0.0755
C18A G39A	0.0739
G17U U27A	0.486
G17U U27G	0.522
C18A A51G	0.0554
C18A A51U	0.0378
C18A G54A	0.0779
C18A G54U	0.135
C18G C21U	0.128
C18G C21G	0.175
C18A G74U	0.0528
C18A G74C	0.0791
C18A G74A	0.0674
C18G C66A	0.0437
C18A G34C	0.136
C18A G34A	0.0326
G17U G59U	0.43
G17U G59C	0.432
C18G G74U	0.116
